Measured values: patent US20160347831A1 (F HOFFMAN LA ROCHE, published 2016)

B2: VHH R3VQ (VHH)
VHH: EVQLQASGGGLVQTGDSLRLSCADSGSTFRNYNIGWFRQTPGQAREFVAAVSRTGISTHVADSLQGRFTISRDNAKNTVYLQMNSLKPEDTAVYSCAAGRPGVGAVNRAMDYDYWGQGTQVTVSS
notes: Expressed with a His tag or a Strep tag; also called R3VQ(His)-NH2 1; R3VQ-NH2 1; not shown: 6-Histidine tag (pET23) or Strep tag (pASK IBA2) from the vector

Assays:
VHH R3VQ = target: B2; test: competition ELISA, soluble Aβ fragment against antigen-coated plate
Protocol: (§1) The binding affinity of VHHs was determined as previously described (Friguet B. et al., 1985, Immunol Methods, 77:305-19). Briefly, various concentrations of Aβ peptides (A13 fragments 1-16, 10-20, 15-25, 22-35 and 29-40) were incubated in solution overnight at 4° C. with a known quantity of VHH until equilibrium was reached. The VHH concentration used was determined by preliminary ELISA calibrations. Each mixture (100 μl) was transferred to a well of a microtiter plate previously coated with antigen and was incubated for 20 min at 4° C. The plates were washed with buffer 0.1% Tween 20 in PBS and bound VHHs were detected by adding beta-galactosidase-conjugated goat anti-rabbit Igs (Biosys, Compiegne, France) and 4-methylumbelliferyl […] (Sigma). Fluorescence was read (Fluoroskan, Labsystem, Finland) at 460 nm, after excitation at 355 nm. KD was estimated from the slope of the regression curve obtained by plotting the reciprocal of the fraction of bound antibody versus the reciprocal of the molar concentration of antigen.

A-beta 42 peptide (Aβ42) = target: T1, A-beta 42 peptide (Aβ42) (human); test: competition ELISA in solution (Friguet method)
T1 construct: Synthetic peptide (Bachem); incubated to give the fibrillar form for immunisation; also called Aβ1-42; fibrillar synthetic Aβ42 peptide
Protocol: as §1

Aβ fragment 29-40 = target: T2, Aβ fragment 29-40 (human); test: competition ELISA with soluble Aβ fragments
T2 peptide: GAIIGLMVGGVV
Protocol: as §1

Aβ fragment 1-16 = target: T3, Aβ fragment 1-16 (human); test: competition ELISA with soluble Aβ fragments
T3 construct: also called Aβ1-16; Aβ16
T3 peptide: DAEFRHDSGYEVHHQK
Protocol: as §1

A-beta 40 (Aβ40) = target: T4, A-beta 40 (Aβ40) (human); test: ELISA on biotinylated Aβ40 (or Aβ42)
T4 construct: ELISA methods say 'A-beta 40 or A-beta 42 (preferably A-beta 40)'; also called Aβ1-40; biotinylated A-beta 40
T4 sequence (peptide, as listed by the source): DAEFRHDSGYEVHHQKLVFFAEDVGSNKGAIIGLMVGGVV

T1 sequence (peptide, as listed by the source): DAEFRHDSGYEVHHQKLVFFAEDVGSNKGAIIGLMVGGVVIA

B1: Aβ fragment 16-35 (peptide)
peptide: KLVFFAEDVGSNKGAIIGLM
notes: this fragment is not in the list of fragments tested (1-16, 10-20, 15-25, 22-35, 29-40); also called AP 16-35
IC50 (VHH R3VQ): 16 nM

B2
Kd (A-beta 42 peptide (Aβ42)): 17 nM | binding result (Aβ fragment 29-40): no binding | binding result (Aβ fragment 1-16): no binding

B3: R3VQ(His)-N-(DOTA/Gd) conjugate 2d (VHH)
VHH: EVQLQASGGGLVQTGDSLRLSCADSGSTFRNYNIGWFRQTPGQAREFVAAVSRTGISTHVADSLQGRFTISRDNAKNTVYLQMNSLKPEDTAVYSCAAGRPGVGAVNRAMDYDYWGQGTQVTVSS
modifications: DOTA/Gd randomly distributed on lysine residues; average Gd/protein (1) 2 (3)
notes: Non-site-specific conjugate; not shown: 6-Histidine tag from pET23
binding in ELISA compared to the original VHH 1 (A-beta 40 (Aβ40)): ~10%

B4: R3VQ(His)-N-(DOTA/Gd) conjugate 2c (VHH)
VHH: EVQLQASGGGLVQTGDSLRLSCADSGSTFRNYNIGWFRQTPGQAREFVAAVSRTGISTHVADSLQGRFTISRDNAKNTVYLQMNSLKPEDTAVYSCAAGRPGVGAVNRAMDYDYWGQGTQVTVSS
modifications: DOTA/Gd randomly distributed on lysine residues; average Gd/protein (1) 2 (3)
notes: as for B3
binding in ELISA compared to the original VHH 1 (A-beta 40 (Aβ40)): ~10%
